Results published in patent US20250051435A1 (INVETX, published 2025).
Substitutions are numbered along the chain they refer to. Names may count otherwise.

B1: Chimeric 154 (clone 154 variable domains with feline IgG1a and feline kappa constant domains) (antibody, V domains shown)
VH: EVQLVESGGDLVKPGGSLKLSCAASGFTFSNYAMSWVRQTPDKRLEWVATIGSGGHYTYHPDSVKGRFSISRDNAKNTLSLQMSSLKSEDTAMYYCTRETDGYDGMDYWGQGTSVTVSS
VL: DIVMTQSPATLSVTPGDRVSLSCRASQSISDYLYWYQQKSHESPRLLIKYASQSISGIPARFSGSGSGSDFTLSINSVEPEDVGVYYCQNGHSFPYTFGGGTKLEIK
notes: also called 154 chimera
B2: MtxA antibody (felinized clone 154) (antibody, IgG1a, V domains shown)
VH: DVQLVESGGDLVKPGGSLRLTCVGSGFTFSNYAMSWVRQAPGEGLQWVATIGSGGHYTYHPDSVKGRFTISRDNAKNTLYLQMNSLQTEDTASYYCTRETDGYDGMDYWGQGTLVTVSS
VL: EIQMTQSPSSLSASVGDRVTITCRASQSISDYLYWYQQKPGKAPKLLIYYASQSISGVPSRFSGSGSGTDFTLTISSLQPEDFATYYCQNGHSFPYTFGPGTKLEIK
notes: Feline IgG1a (GenBank BAA32229.1) / feline kappa (GenBank ATI97438.1); also called Matrix clone A
B3: MtxB antibody (felinized clone 154) (antibody, IgG1a, V domains shown)
VH: B2 VH
VL: DIVMTQTPLSLSVTPGEPASISCRASQSISDYLYWYLQKPGQSPRRLIYYASQSISGVPDRFSGSGSGTDFTLRISRVEADDVGVYYCQNGHSFPYTFGPGTKLEIK
notes: Feline IgG1a (GenBank BAA32229.1) / feline kappa (GenBank ATI97438.1); also called MatrixB; Matrix B
B4: MtxB N106S (LCDR3) variant (antibody, V domains shown)
VH: B2 VH
VL: B3 VL with N90S
notes: Feline IgG with feline kappa constant domain
B5: MtxB N106Q (LCDR3) variant (antibody, V domains shown)
VH: B2 VH
VL: B3 VL with N90Q
notes: as for B4
B6: MtxB Fab (Fab, V domains shown)
VH: B2 VH
VL: B3 VL
notes: Fab made in E. coli from the phagemid: heavy chain variable domain, CH1 and partial hinge; light chain of MtxB; also called Matrix B; original MtxB Fab
B7: 1H3-C6 Fab (MtxB HCDR3 variant) (Fab, V domains shown)
VH: B2 VH with D104G, G105P, Y108V
VL: B3 VL
notes: Fab from the MtxB HCDR3 library; the entry named is the parent, the changed CDR is told under detail
B8: 1L2-H7 Fab (MtxB LCDR2 variant) (Fab, V domains shown)
VH: B2 VH
VL: B3 VL with L47V, I48F, Y49F, Y50T, A51V, Q53G, S54G, I55V
notes: Fab from the MtxB LCDR2 library; the entry named is the parent, the changed CDR is told under detail
B9: 2L2-G12 Fab (MtxB LCDR2 variant) (Fab, V domains shown)
VH: B2 VH
VL: B3 VL with L47V, I48F, Y49F, Y50T, A51P, Q53D, I55A
notes: Fab from the MtxB LCDR2 library
B10: 1L2-D1 Fab (MtxB LCDR2 variant) (Fab, V domains shown)
VH: B2 VH
VL: B3 VL with L47I, I48F, Y49F, Y50T, A51E, S54R, I55A
notes: as for B8
B11: 1L2-E7 Fab (MtxB LCDR2 variant) (Fab, V domains shown)
VH: B2 VH
VL: B3 VL with L47I, I48F, Y49F, Y50A, A51S, Q53L, S54Y, I55D
notes: as for B8
B12: 1L2-D12 Fab (MtxB LCDR2 variant) (Fab, V domains shown)
VH: B2 VH
VL: B3 VL with L47I, I48F, Y49F, Y50G, A51Y, Q53G, S54T, I55K
notes: as for B8
B13: 1L2a-H2 Fab (MtxB LCDR2 variant) (Fab, V domains shown)
VH: B2 VH
VL: B3 VL with L47V, I48F, Y50T, A51D, Q53A, S54E, I55V
notes: as for B8

These binders were tested against T1, feline IL-5 (Kingfisher Biotech; RP1152F) (feline, UniProt O77515 20-134) (assay: Biacore, antibody pre-incubated with 50 nM IL-5 at 1:1, over captured biotinylated IL-5Rα-Fc-AviTag (competitor m3)).
T1 construct: Bought recombinant protein; also called fIL-5; fIL5
T1 sequence (looked up): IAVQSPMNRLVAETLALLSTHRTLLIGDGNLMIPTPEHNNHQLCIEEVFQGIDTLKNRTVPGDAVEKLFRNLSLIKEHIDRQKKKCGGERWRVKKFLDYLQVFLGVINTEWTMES
Experimental: (§1) MtxA antibody and MtxB antibody had the highest affinity to feline IL-5 as determined by surface plasmon resonance (SPR) using a Biacore T200 instrument. Goat anti-feline IgG-Fc fragment specific (Jackson ImmunoResearch; 102-005-008) at 30 μg/ml in 10 mM acetate, pH 5.0 was immobilized onto CM5 sensor chip (Cytiva; 29104988) with NHS coupling at 10 μL/min for 420 seconds and then other sites blocked with ethanolamine at 10 μL/min for 420 seconds. The anti-feline IL-5 antibodies were captured at 2 μg/ml onto the anti-feline IgG CM5 chip for 60 sec at 10 μl/min. […] The kinetics of the feline IL-5 binding to the antibodies is shown below in FIG. 2. In addition, an IL-5 receptor blocking assay was completed by capturing biotinylated receptors on a Series S CAP chip and Biotin CAPture reagent (Cytiva). For this assay, a fusion protein was generated containing the extracellular domain of feline IL-5Rα (XP_011278466.1) linked to a 2X-Gly-Gly-Gly-Ser (SEQ ID NO:89) linker-linked to the human IgG1 Fc linked to the AviTag sequence (FIG. 1B, SEQ ID NO:2) and subcloned into the pcDNA3.4 mammalian expression vector. This construct was expressed in CHO-S cells and purified with protein A chromatography followed by a polishing chromatography step with SEC. The purified recombinant protein was biotinylated in vitro using the BirA biotin ligase. Antibodies were titrated in running buffer (1×PBSP+, Cytiva) and pre-incubated with 50 nM IL-5 (Kingfisher) at multiple molar ratios. Binding was assessed by injecting these samples over the captured receptor for 180 s. The Rmax was used to calculate the inhibition percent by dividing the Rmax of the pre-mixed samples by an average of the IL-5-only Rmax samples that were collected throughout the assay. The ability of each antibody to block binding of feline IL5 was measured (Table 2).

For B1, which “% blocking 1:1” value is on record?
The value was 98.2%.

B2 was tested. Which “% blocking 1:1” value did it give?
The value was 92.5%.

With B3 as the binder, how does the “% blocking 1:1” value read?
The value was 74.2%.

What follows are binders tested against T1, feline IL-5 (Kingfisher Biotech; …) (assay: SPR Biacore T200, IgG captured on goat anti-feline IgG CM5 chip, feline IL-5 as analyte).
Text: (§2) Asparagine deamidation for asparagine residues and oxidation at methionine residues can negatively impact the potency and the stability of an antibody (Xu et al., 2019. MABS, 11:239-264). These post-translational modifications can be particularly problematic when they reside in the CDRs. […] DNA constructs were synthesized (GeneArt) encoding the MtxB clone with substitutions to eliminate the potential sequence liabilities. For the NG site in LCDR3, the Asn (position 106) was substituted with either a Gln or a Ser and for the Met in HCDR3 (position 115), a Len was substituted. The DNA constructs with the light chain variants were fused to the feline kappa constant domain. These DNA constructs were subcloned into the pcDNA3.4 expression vector (ThermoFisher) and expressed with the ExpiCHO system (ThermoFisher). The antibodies were purified with mAbSelect SuRe chromatography (Cytiva) and buffer exchanged into 20 mM sodium acetate, 136 mM sodium chloride, pH 5.5. The variants were tested in an SPR experiment using a Biacore T200 instrument to measure their affinity to feline IL-5 (Kingfisher Biotech; RP1152F). Goat anti-feline IgG was immobilized onto a Series S CM5 sensor chip (Cytiva) and the original MtxB clone and the variants containing the amino acid substitutions were captured on the chip at 5 μg/ml.

B3 was tested. Which Kd did it give?
Its Kd is 5.9 nM.

What about the koff of the same binder?
The koff was 0.00053 s⁻¹.

And the kon?
The kon was 90000 M⁻¹ s⁻¹.

B4 was tested. Which Kd did it give?
The Kd was 3.6 nM.

And the koff?
The koff was 0.00027 s⁻¹.

What about the kon of the same binder?
The kon was 75000 M⁻¹ s⁻¹.

What does the source list for B5?
Kd: 0.56 nM; koff: 8.6e-05 s⁻¹; kon: 150000 M⁻¹ s⁻¹

The binders below were run against T1, feline IL-5 (Kingfisher Biotech; …) (assay: ELISA, Fab culture supernatant on plate-coated feline IL-5, anti-feline Fab'2-HRP detection).
Text: Fragments containing the pre-selected CDR pools from these libraries were randomly paired by overlap PCR to create a new library incorporating mutations throughout all targeted CDRs. The phage propagated following round 4 of selection were used for PCR amplication of LCDR2, LCDR3 and HCDR3. The PCR-amplified fragment containing the light chain and the heavy chain were ligated into a phagemid vector and transformed into E. coli. The number of transformants was approximately 2E+10. Library plasmid DNA was purified using a midi-prep purification method. Ten pg of the library plasmid DNA was transformed into E. coli for growth and propagation of the Fab phage. After overnight phage production, phage was precipitated from the culture supernatant and resuspended in blocking buffer (1% BSA/PBS). The phage were treated at 58° C. for 10 minutes to remove unstable clones prior to the selections. The input phage was incubated for 30 minutes in a blocked ELISA plate coated with feline IL-5. The ELISA plate was washed with PBS, pH 7.4 followed by acid elution of the bound phage. The output phage was then used to infect E. coli for propagation for the next round of selection. For rounds 1, 2, 3 and 4, the ELISA plates were coated with 10 μg/ml, 8 μg/ml, 5 μg/ml and 1 μg/ml, respectively. The number of washes after each round were 3, 5, 10 and 10 for rounds 1, 2, 3 and 4, respectively. Ninety-three clones from the round 4 output were grown overnight for Fab production and tested for binding to feline IL-5 in an ELISA format. For this assay, supernatants from the overnight cultures were incubated in Immulon 4 HBX high-binding plate that was coated with 10 μg/ml feline IL-5 (Kingfisher Biotech; Cat #RP1152F) and blocked with 1% bovine serum albumin in phosphate buffered saline (PBS), pH 7.4. The controls added included the MtxB clone and clone 1H3-C6 which was the top affinity clone from the first stage A1 step. The Fab binding to the feline IL-5 was detected with anti-feline Fab′₂-HRP conjugate.
The results are shown in Table 8A which compares relative Fab binding affinity to feline IL-5 by Fabs disclosed herein. IL-5 binding was detected with anti-feline Fab′₂-HRP conjugate. Differences in CDR amino acids compared to the MtxB are underlined. The data in the last column are absorbance following addition of substrate to detect the HRP conjugate.

For B6, which “fIL5 Fab (ELISA absorbance)” value is on record?
The value was 0.054 absorbance.

B7 was tested. Which “fIL5 Fab (ELISA absorbance)” value did it give?
Its value is 0.1 absorbance.

The binders below were run against T1, feline IL-5 (Kingfisher Biotech; …) (assay: SPR Biacore T200, IgG captured on goat anti-feline IgG-Fc CM5 chip, feline IL-5 as analyte).
Experimental: as §1

With B1 as the binder, how does the Kd read?
The Kd was 0.129 nM.

What about the koff of the same binder?
The koff was 3.56e-05 s⁻¹.

And the kon?
Its kon is 276000 M⁻¹ s⁻¹.

Which results are given for B2?
Kd: 0.178 nM; koff: 1.49e-05 s⁻¹; kon: 87100 M⁻¹ s⁻¹

For B3, which Kd is on record?
The Kd was 5.02 nM.

What about the koff of the same binder?
The koff was 0.000548 s⁻¹.

And the kon?
The kon was 141000 M⁻¹ s⁻¹.

Each binder was assayed against T1, feline IL-5 (Kingfisher Biotech; …) (assay: ELISA on plate-coated feline IL-5, Fab at 65 ng/ml dimerized with goat anti-feline IgG F(ab')2, anti-goat-HRP detection).

B6 was tested. Which “Normalized fIL-5 ELISA value, 65 ng/ml Fab” value (“Normalized fIL-5 ELISA value” for short) did it give?
Its value is 0.165.

For B8, which “Normalized fIL-5 ELISA value” value is on record?
The value was 0.283.

With B9 as the binder, how does the “Normalized fIL-5 ELISA value” value read?
The value was 0.251.

For B10, which “Normalized fIL-5 ELISA value” value is on record?
Its value is 0.492.

B11 was tested. Which “Normalized fIL-5 ELISA value” value did it give?
The value was 0.366.

How did the “Normalized fIL-5 ELISA value” value turn out when B12 was run?
Its value is 0.303.

With B13 as the binder, how does the “Normalized fIL-5 ELISA value” value read?
The value was 0.559.

With B7 as the binder, how does the “Normalized fIL-5 ELISA value” value read?
The value was 0.967.

Target: T1, feline IL-5 (Kingfisher Biotech; …)
Assay: SPR Biacore T200, IgG captured on goat anti-feline IgG CM5 chip, feline IL-5 as analyte
Remark: another data set of the same source
Text: as §2, with “MABS,” for “Asparagine deamidation for asparagine residues and oxidation at methionine residues can negatively impact the potency and the stability of an antibody (Xu et al., 2019. MABS,”
DNA constructs (GeneArt) were generated for the two heavy chain variants with the feline IgG1a constant domain along with the three light chain variants with the feline kappa constant domain were all subcloned into pcDNA 3.4 (ThermnoFisher Scientific). Each combination of the heavy and light chain variants was transfected into ExpiCHO cells to generate conditioned medium. The feline IgGs were purified using MabSelect SuRe chromatography and buffer exchanged into 20 mM sodium acetate, 136 mM sodium chloride, pH 5.5. The binding affinities of the different feline IgGs to feline IL-5 was determined using the same SPR method described in the removing potential sequence liabilities in LCDR3 and HCDR3 section and are shown below in Table 7.

What does the source list for B1?
Kd: 0.0914 nM; koff: 3.38e-05 s⁻¹; kon: 369000 M⁻¹ s⁻¹

Which Kd does the source give for B2 here?
Its Kd is 0.273 nM.

And the koff?
The koff was 6.65e-05 s⁻¹.

What about the kon of the same binder?
The kon was 242000 M⁻¹ s⁻¹.
